The source of these data is US20080020978A1 (Amgen, published 2008).

The labels stand for the following.
B1: SEQ ID NO 900 (peptide)
peptide: Ac-[1Nal]VEH[hArg]LKGLLS[Cit]SGGVVRKNFVPTDVGPFAF-NH2
modifications: lactam 3-7
SMILES: CC(=O)N[C@@H](Cc1cccc2ccccc12)C(=O)N[C@H](C(=O)N[C@H]1CCC(=O)NCCCC[C@@H](C(=O)NCC(=O)N[C@@H](CC(C)C)C(=O)N[C@@H](CC(C)C)C(=O)N[C@@H](CO)C(=O)N[C@@H](CCCNC(N)=O)C(=O)N[C@@H](CO)C(=O)NCC(=O)NCC(=O)N[C@H](C(=O)N[C@H](C(=O)N[C@@H](CCCNC(=N)N)C(=O)N[C@@H](CCCCN)C(=O)N[C@@H](CC(N)=O)C(=O)N[C@@H](Cc2ccccc2)C(=O)N[C@H](C(=O)N2CCC[C@H]2C(=O)N[C@H](C(=O)N[C@@H](CC(=O)O)C(=O)N[C@H](C(=O)NCC(=O)N2CCC[C@H]2C(=O)N[C@@H](Cc2ccccc2)C(=O)N[C@@H](C)C(=O)N[C@@H](Cc2ccccc2)C(N)=O)C(C)C)[C@@H](C)O)C(C)C)C(C)C)C(C)C)NC(=O)[C@H](CC(C)C)NC(=O)[C@H](CCCCNC(=N)N)NC(=O)[C@H](Cc2c[nH]cn2)NC1=O)C(C)C
B2: SEQ ID NO 908 (peptide)
peptide: Ac-WVEH[hArg]LKGLLS[Cit]SGGVV[hArg]KNFVPTDVGPFAF-NH2
modifications: lactam 3-7
SMILES: CC(=O)N[C@@H](Cc1c[nH]c2ccccc12)C(=O)N[C@H](C(=O)N[C@H]1CCC(=O)NCCCC[C@@H](C(=O)NCC(=O)N[C@@H](CC(C)C)C(=O)N[C@@H](CC(C)C)C(=O)N[C@@H](CO)C(=O)N[C@@H](CCCNC(N)=O)C(=O)N[C@@H](CO)C(=O)NCC(=O)NCC(=O)N[C@H](C(=O)N[C@H](C(=O)N[C@@H](CCCCNC(=N)N)C(=O)N[C@@H](CCCCN)C(=O)N[C@@H](CC(N)=O)C(=O)N[C@@H](Cc2ccccc2)C(=O)N[C@H](C(=O)N2CCC[C@H]2C(=O)N[C@H](C(=O)N[C@@H](CC(=O)O)C(=O)N[C@H](C(=O)NCC(=O)N2CCC[C@H]2C(=O)N[C@@H](Cc2ccccc2)C(=O)N[C@@H](C)C(=O)N[C@@H](Cc2ccccc2)C(N)=O)C(C)C)[C@@H](C)O)C(C)C)C(C)C)C(C)C)NC(=O)[C@H](CC(C)C)NC(=O)[C@H](CCCCNC(=N)N)NC(=O)[C@H](Cc2c[nH]cn2)NC1=O)C(C)C
B3: SEQ ID NO 898 (peptide)
peptide: Ac-[Aib]WVEH[hArg]LKGLLS[Cit]SGGVVRKNFVPTDVGPFAF-NH2
modifications: lactam 4-8
SMILES: CC(=O)NC(C)(C)C(=O)N[C@@H](Cc1c[nH]c2ccccc12)C(=O)N[C@H](C(=O)N[C@H]1CCC(=O)NCCCC[C@@H](C(=O)NCC(=O)N[C@@H](CC(C)C)C(=O)N[C@@H](CC(C)C)C(=O)N[C@@H](CO)C(=O)N[C@@H](CCCNC(N)=O)C(=O)N[C@@H](CO)C(=O)NCC(=O)NCC(=O)N[C@H](C(=O)N[C@H](C(=O)N[C@@H](CCCNC(=N)N)C(=O)N[C@@H](CCCCN)C(=O)N[C@@H](CC(N)=O)C(=O)N[C@@H](Cc2ccccc2)C(=O)N[C@H](C(=O)N2CCC[C@H]2C(=O)N[C@H](C(=O)N[C@@H](CC(=O)O)C(=O)N[C@H](C(=O)NCC(=O)N2CCC[C@H]2C(=O)N[C@@H](Cc2ccccc2)C(=O)N[C@@H](C)C(=O)N[C@@H](Cc2ccccc2)C(N)=O)C(C)C)[C@@H](C)O)C(C)C)C(C)C)C(C)C)NC(=O)[C@H](CC(C)C)NC(=O)[C@H](CCCCNC(=N)N)NC(=O)[C@H](Cc2c[nH]cn2)NC1=O)C(C)C
B4: SEQ ID NO 903 (peptide)
peptide: Ac-WVTHRLEGLLKQSGGVV[hArg]KNFVPTDVGPFAF-NH2
SMILES: CC(=O)N[C@@H](Cc1c[nH]c2ccccc12)C(=O)N[C@H](C(=O)N[C@H](C(=O)N[C@@H](Cc1c[nH]cn1)C(=O)N[C@@H](CCCNC(=N)N)C(=O)N[C@@H](CC(C)C)C(=O)N[C@@H](CCC(=O)O)C(=O)NCC(=O)N[C@@H](CC(C)C)C(=O)N[C@@H](CC(C)C)C(=O)N[C@@H](CCCCN)C(=O)N[C@@H](CCC(N)=O)C(=O)N[C@@H](CO)C(=O)NCC(=O)NCC(=O)N[C@H](C(=O)N[C@H](C(=O)N[C@@H](CCCCNC(=N)N)C(=O)N[C@@H](CCCCN)C(=O)N[C@@H](CC(N)=O)C(=O)N[C@@H](Cc1ccccc1)C(=O)N[C@H](C(=O)N1CCC[C@H]1C(=O)N[C@H](C(=O)N[C@@H](CC(=O)O)C(=O)N[C@H](C(=O)NCC(=O)N1CCC[C@H]1C(=O)N[C@@H](Cc1ccccc1)C(=O)N[C@@H](C)C(=O)N[C@@H](Cc1ccccc1)C(N)=O)C(C)C)[C@@H](C)O)C(C)C)C(C)C)C(C)C)[C@@H](C)O)C(C)C

Bridge positions count the residues as written; N and C are the ends. Square brackets hold non-standard residues; d marks the D form. 1Nal = N[C@@H](Cc1cccc2ccccc12)C(=O)O; hArg = N=C(N)NCCCC[C@H](N)C(=O)O; Cit = NC(=O)NCCC[C@H](N)C(=O)O; Aze = O=C(O)[C@@H]1CCN1; Aib = CC(C)(N)C(=O)O

The target of the experiment is CGRP1 receptor (CRLR/RAMP1 complex) of human neuroblastoma SK-N-MC cells (human, UniProt Q16602 23-461; O60894 27-148). Kind of experiment: cell-based or functional assay.
CGRP1 receptor (CRLR/RAMP1 complex) of human neuroblastoma SK-N-MC cells, sequence (Q16602 23-461, chain 1 of 2): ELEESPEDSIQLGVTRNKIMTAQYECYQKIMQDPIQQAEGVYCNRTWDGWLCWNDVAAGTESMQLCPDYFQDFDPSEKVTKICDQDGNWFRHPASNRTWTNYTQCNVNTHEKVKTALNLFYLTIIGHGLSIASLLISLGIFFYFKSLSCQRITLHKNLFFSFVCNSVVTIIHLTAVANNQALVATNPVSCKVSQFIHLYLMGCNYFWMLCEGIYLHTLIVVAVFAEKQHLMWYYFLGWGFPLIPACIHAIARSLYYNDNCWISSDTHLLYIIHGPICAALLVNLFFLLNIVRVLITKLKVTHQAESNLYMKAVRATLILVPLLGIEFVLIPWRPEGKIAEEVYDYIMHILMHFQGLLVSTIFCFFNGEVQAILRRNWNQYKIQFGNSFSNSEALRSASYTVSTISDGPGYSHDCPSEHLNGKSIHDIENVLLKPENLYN
CGRP1 receptor (CRLR/RAMP1 complex) of human neuroblastoma SK-N-MC cells, sequence (O60894 27-148, chain 2 of 2): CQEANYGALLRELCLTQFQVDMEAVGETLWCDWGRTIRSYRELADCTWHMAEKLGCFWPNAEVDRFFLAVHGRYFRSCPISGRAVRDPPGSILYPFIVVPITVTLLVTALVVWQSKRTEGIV
In the case of B1, the “Peptide IC50” value came out at 2.43 nM. Ac-WVEH[hArg]LKGLLS[Cit]SG[Aze]VVRKNFVPTDVGPFAF-NH2 (lactam 3-7) [SEQ ID NO 899]: the “Peptide IC50” value came to 1.62 nM. Ac-WVEHRLKGLLS[hArg]SGGVV[hArg]KNFVPTDVGPFAF-NH2 (lactam 3-7) [SEQ ID NO 905]: the “Peptide IC50” value was 1.7 nM. Take Ac-WVEHRLKGLLS[Cit]SGGVV[hArg]KNFVPTDVGPFAF-NH2 (lactam 3-7) [SEQ ID NO 906]: the “Peptide IC50” value is 1.15 nM. As to Ac-WVEHRLKGLLS[hArg]SGGVV[hArg]KNFVPTDVGPFAF-NH2 (lactam 3-7; also: PEG-conjugated, in most cases at Lys25) [PEG-peptide of SEQ ID NO 905], the “PEG-peptide IC50” value amounted to 3.7 nM. For the molecule Ac-WVEHRLKGLLSQSGGVV[hArg]KNFVPTDVGPFAF-NH2 (lactam 3-7) [SEQ ID NO 904], the “Peptide IC50” value is 2.03 nM. The same measure, in the same setting: the value for B2 was 1.28 nM. For the molecule Ac-WVEH[Cit]LKGLLS[Cit]SGGVV[hArg]KNFVPTDVGPFAF-NH2 (lactam 3-7; also: PEG-conjugated, in most cases at Lys25) [PEG-peptide of SEQ ID NO 907], the “PEG-peptide IC50” value came to 4.87 nM. On the same count and under the same terms, next, Ac-WVEHRLKGLLSQSGGVV[hArg]KNFVPTDVGPFAF-NH2 (lactam 3-7; also: PEG-conjugated, in most cases at Lys25) [PEG-peptide of SEQ ID NO 904]: 6.73 nM. WVEHRLKGELSRKGGVVXKNFVPTDVGPFAF (Ac-WVEHRLKGELSRKGGVV[hArg]KNFVPTDVGPFAF-NH2) [SEQ ID NO 901]: the “Peptide IC50” value came out at 1.02 nM. The same measure, in the same setting: the value for WVEHRLKGELSXKGGVVXKNFVPTDVGPFAF (Ac-WVEHRLKGELS[Cit]KGGVV[hArg]KNFVPTDVGPFAF-NH2) [SEQ ID NO 902] was 0.49 nM; that for B3 was 3.18 nM; that for B4 was 3.5 nM. On to Ac-[Aib]WVEH[hArg]LKGLLS[Cit]SGGVVRKNFVPTDVGPFAF-NH2 (lactam 4-8; also: PEG-conjugated, in most cases at Lys25) [PEG-peptide of SEQ ID NO 898], for which the “PEG-peptide IC50” value worked out at 40.7 nM.

For Ac-WVEHRLKGLLS[Cit]SGGVV[hArg]KNFVPTDVGPFAF-NH2 (lactam 3-7; also: PEG-conjugated, in most cases at Lys25) [PEG-peptide of SEQ ID NO 906], the “PEG-peptide IC50” value is 2.29 nM.
